The results in this text go back to paper doi:10.1101/2020.10.02.324624.

This assay addresses AmvR (Acinetobacter baumannii ATCC17978). Description: SEC. (In general: In gel filtration, larger molecules generally elute earlier.)

In the case of AmvR (natural protein), the stoichiometry N (in general, the number of molecules, sites or subunits per partner or assembly) stood at 2.
